The values that follow come from the supplement of paper PMC7877785.

This data set can be described thus: self-splicing fitness, log relative to wild type (ln ratio); higher = more splicing; Tetrahymena group I intron in knt gene, E. coli kanamycin selection, DiMSum; sequences stand for … in CUCUCU…GGAGGGAAAAGUUAUCAGGCAUGCACCUGGUAGCUAGUCUUUAAACCAAUAGAUUGCAUCGGUUUAAAAGGCAAGACCGUCAAAUUGCGGGAAAGGGGUCAACAGCCGUUCAGUACCAAGUCUCAGGGGAAACUUUGAGAUGGCCUUGCAAAGGGUAUGGUAAUAAGCUGACGGACAUGGUCCUAACCACGCAGCCAAGUCCUAAGUCAACAGAUCUUCUGUUGAUAUGGAUGCAGUUCACAGACUAAAUGUCGGUCGGGGAAGAUGUAUUCUUCUCAUAAGAUAUAGUCGGACCUCUCCUUAAUGGGAGCUAGCGGAUGAAGUGAUGCAACACUGGAGCCGCUGGGAACUAAUUUGUAUGCGAAAGUAUAUUGAUUAGUUUUGGAGUACUCGUGGUCG
In a few lines:
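Library with all eight P1ex-region intron nucleotides randomised, intron inside the knt kanamycin-resistance gene on pET-22b(+), in E. coli BL21(DE3). Cells grew overnight at 37°C or 30°C on LB agar with or without 25 μg/mL kanamycin (plus 100 μg/mL carbenicillin, 50 μM IPTG, 0.2% rhamnose), in six replicate transformations. Pooled colonies were amplicon-sequenced on Illumina HiSeq 2500. DiMSum fitness is the error-weighted combination of wild-type-normalised replicate fold changes, kanamycin versus none.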

± gives the uncertainty stated by the source.

Consider GUUGAGCAAUAUUACGACGA, for which the “self-splicing fitness (ln)” value was -3.3 ± 0.32 (30 °C) and -2.2 ± 0.27 (37 °C).

In the case of CCGGAGCAAUAUUACGAGGU, the “self-splicing fitness (ln)” value (30 °C) was -3.56 ± 0.46 and the “self-splicing fitness (ln)” value (37 °C) was -2.6 ± 0.31.

As to GCGGAGCAAUAUUACGAUAG, the “self-splicing fitness (ln)” value (30 °C) is -2.96 ± 0.38 and the “self-splicing fitness (ln)” value (37 °C) is -2.67 ± 0.44. Take UUUAAGCAAUAUUACGAUGC: the “self-splicing fitness (ln)” value (30 °C) is -1.41 ± 0.37. As to AACUAGCAAUAUUACGAAGU, the “self-splicing fitness (ln)” value runs as follows: (30 °C) -3.67 ± 0.3; (37 °C) -2 ± 0.13. The matching figures for UAACAGCAAUAUUACGAGGA: -3.13 ± 0.2 and -1.49 ± 0.14.

Regarding CGCAAGCAAUAUUACGGGUU, the “self-splicing fitness (ln)” value (30 °C) was -4.62 ± 0.3 and the “self-splicing fitness (ln)” value (37 °C) is -2.7 ± 0.2.

As to AAUCAGCAAUAUUACGGGCA, the “self-splicing fitness (ln)” value is -0.515 ± 0.091 (30 °C) and -0.146 ± 0.12 (37 °C). Take UAACAGCAAUAUUACGUCAU: the “self-splicing fitness (ln)” value was -3.81 ± 0.16 (30 °C) and -1.74 ± 0.15 (37 °C).

As for GAGUAGCAAUAUUACGACUG, the “self-splicing fitness (ln)” value is, setting by setting: (30 °C) 0.34 ± 0.24; (37 °C) -0.96 ± 0.21. The matching figures for CUGCAGCAAUAUUACGACGC: -3.79 ± 0.27 and -3.06 ± 0.29. The matching figures for UUAUAGCAAUAUUACGUACA: -1.06 ± 0.16 and -0.0284 ± 0.16. Regarding AGCAAGCAAUAUUACGGUCA, the “self-splicing fitness (ln)” value (30 °C) was -0.46 ± 0.07 and the “self-splicing fitness (ln)” value (37 °C) was determined as 0.00074 ± 0.084. The corresponding values for UGCCAGCAAUAUUACGUUGC are -2.93 ± 0.17 and -2.93 ± 0.18. The corresponding values for GCCGAGCAAUAUUACGCGUA are -0.983 ± 0.069 and -0.591 ± 0.066. As to UGAAAGCAAUAUUACGCUUG, the “self-splicing fitness (ln)” value is, setting by setting: (30 °C) -1.8 ± 0.11; (37 °C) -1.32 ± 0.13.

Regarding GUAGAGCAAUAUUACGGGUU, the “self-splicing fitness (ln)” value was -4.13 ± 0.3 (30 °C) and -2.15 ± 0.22 (37 °C).

On to CCUAAGCAAUAUUACGACUU, for which the “self-splicing fitness (ln)” value is -4.37 ± 0.17 (30 °C) and -2.4 ± 0.13 (37 °C).

CACAAGCAAUAUUACGCACC: the “self-splicing fitness (ln)” value reads like this: (30 °C) -3.98 ± 0.37; (37 °C) -2.4 ± 0.3. Turning to AGAAAGCAAUAUUACGAAGG, the “self-splicing fitness (ln)” value (30 °C) was -3.59 ± 0.25 and the “self-splicing fitness (ln)” value (37 °C) is -1.74 ± 0.2. On to GACUAGCAAUAUUACGUAGA, for which the “self-splicing fitness (ln)” value reads like this: (30 °C) -0.815 ± 0.077; (37 °C) -1.17 ± 0.097. The matching figures for ACCAAGCAAUAUUACGGUCU: -2.13 ± 0.08 and -0.69 ± 0.066. For GCCCAGCAAUAUUACGUGCG, the “self-splicing fitness (ln)” value was -3.42 ± 0.21 (30 °C) and -1.71 ± 0.17 (37 °C). UCAGAGCAAUAUUACGUUAA: the “self-splicing fitness (ln)” value (30 °C) is -3.58 ± 0.35 and the “self-splicing fitness (ln)” value (37 °C) was -2.61 ± 0.34. The corresponding values for ACUAAGCAAUAUUACGAGAU are -3 ± 0.15 and -2.45 ± 0.2. As to CGUAAGCAAUAUUACGUGCC, the “self-splicing fitness (ln)” value (30 °C) is -2.64 ± 0.23 and the “self-splicing fitness (ln)” value (37 °C) is -1.67 ± 0.2.

For AUCUAGCAAUAUUACGUGCC, the “self-splicing fitness (ln)” value by setting is: (30 °C) -2.47 ± 0.23; (37 °C) -1.08 ± 0.15. The matching figures for CUACAGCAAUAUUACGAUCG: -0.0619 ± 0.061 and 0.736 ± 0.085.

On to ACAAAGCAAUAUUACGCCUA, for which the “self-splicing fitness (ln)” value (30 °C) is -1.61 ± 0.13 and the “self-splicing fitness (ln)” value (37 °C) was -1.32 ± 0.12. As to UGGCAGCAAUAUUACGAUGG, the “self-splicing fitness (ln)” value was -1.48 ± 0.17 (30 °C) and -1.67 ± 0.18 (37 °C). The matching figures for AGCAAGCAAUAUUACGUCCG: -0.909 ± 0.12 and -0.462 ± 0.14. The corresponding values for AUCCAGCAAUAUUACGCAUU are -1.37 ± 0.064 and -0.265 ± 0.082.

GUUCAGCAAUAUUACGGCGA: the “self-splicing fitness (ln)” value runs as follows: (30 °C) -1.16 ± 0.19; (37 °C) 0.354 ± 0.18.

Turning to AAAAAGCAAUAUUACGCGCU, the “self-splicing fitness (ln)” value is, setting by setting: (30 °C) -0.379 ± 0.076; (37 °C) -0.358 ± 0.091. For GAAGAGCAAUAUUACGAGCA, the “self-splicing fitness (ln)” value (37 °C) was -1.33 ± 0.33. In the case of ACCUAGCAAUAUUACGUGGA, the “self-splicing fitness (ln)” value (30 °C) was -2.36 ± 0.093 and the “self-splicing fitness (ln)” value (37 °C) was -1.62 ± 0.084.

Turning to GAAAAGCAAUAUUACGUGUU, the “self-splicing fitness (ln)” value by setting is: (30 °C) -2.35 ± 0.083; (37 °C) -1.18 ± 0.088. AGGCAGCAAUAUUACGCCCA: the “self-splicing fitness (ln)” value by setting is: (30 °C) -0.718 ± 0.094; (37 °C) -0.205 ± 0.15.

In the case of GACCAGCAAUAUUACGUGAG, the “self-splicing fitness (ln)” value by setting is: (30 °C) -1.33 ± 0.055; (37 °C) -1 ± 0.064.

For the sequence CUCCAGCAAUAUUACGGUAC, the “self-splicing fitness (ln)” value is, setting by setting: (30 °C) -2.28 ± 0.12; (37 °C) -1.86 ± 0.16. The matching figures for CUUCAGCAAUAUUACGGAUA: -1.97 ± 0.12 and -0.695 ± 0.11. The matching figures for ACAGAGCAAUAUUACGAGUU: -3.3 ± 0.2 and -1.8 ± 0.14. The matching figures for AUUUAGCAAUAUUACGAAAU: -2 ± 0.31 and -1.54 ± 0.27.

For the sequence CGGGAGCAAUAUUACGAGCA, the “self-splicing fitness (ln)” value by setting is: (30 °C) -3 ± 0.19; (37 °C) -3.2 ± 0.31. The matching figures for UGUCAGCAAUAUUACGCCGG: -2.61 ± 0.5 and -0.725 ± 0.36.

Consider AUUAAGCAAUAUUACGAAUA, for which the “self-splicing fitness (ln)” value runs as follows: (30 °C) -1.29 ± 0.21; (37 °C) -0.938 ± 0.21. The corresponding values for GAACAGCAAUAUUACGUCGC are -1.61 ± 0.11 and -0.68 ± 0.12.

For CACUAGCAAUAUUACGCUGC, the “self-splicing fitness (ln)” value runs as follows: (30 °C) -3.71 ± 0.32; (37 °C) -2.76 ± 0.35.

As to GGGAAGCAAUAUUACGUGGU, the “self-splicing fitness (ln)” value runs as follows: (30 °C) -4.31 ± 0.27; (37 °C) -3.33 ± 0.47. The matching figures for AUUAAGCAAUAUUACGGUUA: -1.18 ± 0.095 and -1.19 ± 0.085.

Consider UCAGAGCAAUAUUACGCAAG, for which the “self-splicing fitness (ln)” value was -1.74 ± 0.42 (30 °C) and -1.48 ± 0.29 (37 °C). Take CACUAGCAAUAUUACGGAGU: the “self-splicing fitness (ln)” value is, setting by setting: (30 °C) -3.63 ± 0.18; (37 °C) -2.14 ± 0.16.

For the sequence UCAGAGCAAUAUUACGAAGC, the “self-splicing fitness (ln)” value (30 °C) is -2.55 ± 0.44.

Take AUGGAGCAAUAUUACGAGAU: the “self-splicing fitness (ln)” value (30 °C) was -3.73 ± 0.28 and the “self-splicing fitness (ln)” value (37 °C) is -1.96 ± 0.2.

For AUACAGCAAUAUUACGAAAG, the “self-splicing fitness (ln)” value is -2.62 ± 0.19 (30 °C) and -0.9 ± 0.17 (37 °C).

Take UAGAAGCAAUAUUACGACUU: the “self-splicing fitness (ln)” value (30 °C) was -0.772 ± 0.11 and the “self-splicing fitness (ln)” value (37 °C) is -0.183 ± 0.17.

For the sequence AGGAAGCAAUAUUACGCGUG, the “self-splicing fitness (ln)” value by setting is: (30 °C) -1.49 ± 0.072; (37 °C) -0.951 ± 0.092. On to ACCGAGCAAUAUUACGCAAC, for which the “self-splicing fitness (ln)” value is, setting by setting: (30 °C) -2.01 ± 0.2; (37 °C) -0.42 ± 0.2. The matching figures for CUGGAGCAAUAUUACGUAGG: -1.78 ± 0.071 and -1.4 ± 0.095. The corresponding values for AACGAGCAAUAUUACGGUCA are -2.05 ± 0.21 and -1.12 ± 0.2. Regarding UCUUAGCAAUAUUACGUUUC, the “self-splicing fitness (ln)” value reads like this: (30 °C) -3.68 ± 0.24; (37 °C) -2.8 ± 0.29. The matching figures for CAUGAGCAAUAUUACGGUUC: -3.65 ± 0.46 and -2.13 ± 0.38. On to CUCCAGCAAUAUUACGGAUG, for which the “self-splicing fitness (ln)” value was -2.46 ± 0.13 (30 °C) and -1.38 ± 0.14 (37 °C). On to CGCGAGCAAUAUUACGCAGU, for which the “self-splicing fitness (ln)” value was -2.99 ± 0.16 (30 °C) and -2.77 ± 0.17 (37 °C). In the case of UUGUAGCAAUAUUACGUGGC, under “37 °C”, the “self-splicing fitness (ln)” value was -2.15 ± 0.47. AGUGAGCAAUAUUACGGUGA: the “self-splicing fitness (ln)” value is, setting by setting: (30 °C) -3.03 ± 0.31; (37 °C) -2.96 ± 0.3. As to CGGUAGCAAUAUUACGAUGA, the “self-splicing fitness (ln)” value reads like this: (30 °C) -1.38 ± 0.13; (37 °C) -0.66 ± 0.16. For UGAGAGCAAUAUUACGGCGG, the “self-splicing fitness (ln)” value was -3.73 ± 0.35 (30 °C) and -1.9 ± 0.3 (37 °C). Regarding GGCCAGCAAUAUUACGGCAU, the “self-splicing fitness (ln)” value runs as follows: (30 °C) -1.13 ± 0.056; (37 °C) -0.688 ± 0.066.

Regarding ACGCAGCAAUAUUACGUACA, the “self-splicing fitness (ln)” value runs as follows: (30 °C) -2.03 ± 0.11; (37 °C) -0.547 ± 0.12. Turning to AAUAAGCAAUAUUACGAAAG, the “self-splicing fitness (ln)” value was -3.68 ± 0.27 (30 °C) and -1.37 ± 0.22 (37 °C).

Consider AAUGAGCAAUAUUACGCACU, for which the “self-splicing fitness (ln)” value by setting is: (30 °C) -1.07 ± 0.11; (37 °C) 0.105 ± 0.15. Take GGCUAGCAAUAUUACGUUAA: the “self-splicing fitness (ln)” value (30 °C) is -1.24 ± 0.091 and the “self-splicing fitness (ln)” value (37 °C) is -0.642 ± 0.12. Regarding UCAGAGCAAUAUUACGCCCG, the “self-splicing fitness (ln)” value (30 °C) is -2 ± 0.47. In the case of CACUAGCAAUAUUACGAUUA, the “self-splicing fitness (ln)” value (30 °C) was -1.21 ± 0.21 and the “self-splicing fitness (ln)” value (37 °C) was -2.44 ± 0.28. The corresponding values for GUUAAGCAAUAUUACGGAGC are -3.58 ± 0.33 and -2.55 ± 0.27.
